According to the supplement of paper PMC10899765:

What was measured:
Conditions in all cases: 20 nM; 72 h
MCF10A [1] = test: 5+ nucleoli phenotype percent effect (relative to siNT 0% and siKIF11 100%); higher = more cells with five or more nucleoli
Protocol: (§1)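 After 72 h, cells were fixed and stained with Hoechst and anti-fibrillarin, and nucleoli per nucleus were counted with CellProfiler. Values are plate-adjusted percent effect for the one-nucleolus and 5+ nucleoli phenotypes, normalised to siNT (0%) and to the positive controls siNOL11 or siKIF11 (100%), as the mean of biological triplicates. Percent viability is the nuclei count relative to siNT.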

MCF10A [2] = test: one-nucleolus phenotype percent effect (relative to siNT 0% and siNOL11 100%); higher = more cells with one nucleolus (ribosome biogenesis inhibition)
Protocol: as §1

MCF10A [3] = test: percent viability (nuclei count relative to siNT); higher = more viable cells
Protocol: as §1

Row | Sequence | 5+ nucleoli phenotype percent effect (MCF10A [1]) [%] | one-nucleolus phenotype percent effect (MCF10A [2]) [%] | percent viability (MCF10A [3]) [%]
1 | UUAGGCCAUCAUCCCAUUAUGC [hsa-miR-5704] | 46.5 | -23.2 | 181
2 | UUAGGCCGCAGAUCUGGGUGA [hsa-miR-1295a] | -12.5 | 8.73 | 33.2
3 | UUAGGGAGUAGAAGGGUGGGGAG [hsa-miR-3162-5p] | -5.7 | 8.12 | 52.8
4 | UUAGGGCCCUGGCUCCAUCUCC [hsa-miR-1296] | 13.2 | 8 | 39.5
5 | UUAGUCCUGCCUGUAGGUUUA [hsa-miR-4540] | -37.9 | 8.27 | 39.3
6 | UUAGUCUCAUGAUCAGACACA [hsa-miR-4474-5p] | 35.6 | -23.4 | 29.8
7 | UUAGUGAAGGCUAUUUUAAUU [hsa-miR-3606-5p] | -9.93 | 6.89 | 109
8 | UUAGUGCAUAGUCUUUGGUCU [hsa-miR-4671-3p] | 47.6 | -12 | 85.2
9 | UUAUAAAGCAAUGAGACUGAUU [hsa-miR-340-5p] | -24.6 | 47.7 | 21.9
10 | UUAUAAUACAACCUGAUAAGUG [hsa-miR-374a-5p] | 26.1 | -14.4 | 100
11 | UUAUCAGAAUCUCCAGGGGUAC [hsa-miR-361-5p] | -4.16 | -9.14 | 62.4
12 | UUAUGGUUUGCCUGGGACUGAG [hsa-miR-584-5p] | 35 | -25.7 | 77.9
13 | UUAUUGCUUAAGAAUACGCGUAG [hsa-miR-137] | -22.6 | 47.7 | 114
14 | UUAUUGUCACGUUCUGAUU [hsa-miR-5701] | 3.43 | 4.81 | 22.2
15 | UUCAACAAGGGUGUAGGAUGG [hsa-miR-7159-5p] | 14.1 | -19.4 | 105
16 | UUCAACGGGUAUUUAUUGAGCA [hsa-miR-95] | 9.5 | -0.724 | 69.8
17 | UUCAAGUAAUCCAGGAUAGGCU [hsa-miR-26a-5p] | 17.8 | -6.05 | 103
18 | UUCAAGUAAUUCAGGAUAGGU [hsa-miR-26b-5p] | 45.6 | -8.67 | 149
19 | UUCAAGUAAUUCAGGUG [hsa-miR-1297] | 45.2 | -17.3 | 121
20 | UUCACAAGGAGGUGUCAUUUAU [hsa-miR-513b] | -29.7 | 14.2 | 62.4
21 | UUCACAGGGAGGUGUCAU [hsa-miR-513a-5p] | -25.5 | 24.8 | 68
22 | UUCACAGUGGCUAAGUUCCGC [hsa-miR-27a-3p] | -6.22 | -7.64 | 118
23 | UUCACAGUGGCUAAGUUCUGC [hsa-miR-27b-3p] | -0.0856 | -13.3 | 128
24 | UUCACAUUGUGCUACUGUCUGC [hsa-miR-130a-5p] | 19 | -14.6 | 124
25 | UUCACCACCUUCUCCACCCAGC [hsa-miR-197-3p] | -10 | 10.8 | 28.8
26 | UUCACCCCUCUCACCUAAGCAG [hsa-miR-6802-3p] | 15.5 | -11.2 | 63.6
27 | UUCACUGGAGUUUGUUUCAAUA [hsa-miR-653-3p] | -0.303 | -7.51 | 57.9
28 | UUCAGAUCCCAGCGGUGCCUCU [hsa-miR-5100] | -27.6 | 14.1 | 39.2
29 | UUCAGCAGGAACAGCU [hsa-miR-4291] | -7.69 | -4.14 | 45.7
